Experimental data published in patent US20050019842A1.

Legend:
[1] = target: mouse IgG (Sigma Chemical Co., product number I5381); test: resonant light scattering; step 2, 50 µg/mL anti-Alexa rabbit IgG in cell extract background on mouse IgG microparticles; against the starting spectra
[2] = target: mouse IgG (Sigma Chemical Co., product number I5381); test: resonant light scattering; step C, 40 µg/mL Fab specific goat anti-mouse IgG on mouse IgG held by Protein G′ microparticles; shift is cumulative against the unbound reference (0.054 nm after step B)
[3] = target: Protein G′ (Sigma Chemical Co. product P-4689) (group G Streptococcal strain) (UniProt P19909); test: resonant light scattering, real time; 500 µg/mL mouse IgG on Protein G′ microparticles; time 5 min
[4] = target: Protein G′ (Sigma Chemical Co. product P-4689) (group G Streptococcal strain) (UniProt P19909); test: resonant light scattering, real time; 10 µg/mL mouse IgG on Protein G′ microparticles; time 25 min
[5] = target: Protein G′ (Sigma Chemical Co. product P-4689) (group G Streptococcal strain) (UniProt P19909); test: resonant light scattering; step B, 50 µg/mL mouse IgG on Protein G′ microparticles, 0.5 h; against the unbound reference
[6] = target: Protein G′ (Sigma Chemical Co. product P-4689) (group G Streptococcal strain) (UniProt P19909); test: resonant light scattering, real time; 500 µg/mL mouse IgG on Protein G′ microparticles; time 30 min
[7] = target: Protein G′ (Sigma Chemical Co. product P-4689) (group G Streptococcal strain) (UniProt P19909); test: resonant light scattering, real time; 10 µg/mL mouse IgG on Protein G′ microparticles
[8] = target: Protein G′ (Sigma Chemical Co. product P-4689) (group G Streptococcal strain) (UniProt P19909); test: resonant light scattering, real time; 50 µg/mL mouse IgG on Protein G′ microparticles; time 5 min
[9] = target: Protein G′ (Sigma Chemical Co. product P-4689) (group G Streptococcal strain) (UniProt P19909); test: resonant light scattering, real time; 10 µg/mL mouse IgG on Protein G′ microparticles; time 0 min (reference)
[10] = target: Protein G′ (Sigma Chemical Co. product P-4689) (group G Streptococcal strain) (UniProt P19909); test: resonant light scattering, real time; 10 µg/mL mouse IgG on Protein G′ microparticles; time 16 min
[11] = target: Protein G′ (Sigma Chemical Co. product P-4689) (group G Streptococcal strain) (UniProt P19909); test: resonant light scattering, real time; 10 µg/mL mouse IgG on Protein G′ microparticles; time 35 min
[12] = target: Protein G′ (Sigma Chemical Co. product P-4689) (group G Streptococcal strain) (UniProt P19909); test: resonant light scattering, real time; 10 µg/mL mouse IgG on Protein G′ microparticles; time 40 min
[13] = target: Protein G′ (Sigma Chemical Co. product P-4689) (group G Streptococcal strain) (UniProt P19909); test: resonant light scattering, real time; 500 µg/mL mouse IgG on Protein G′ microparticles; time 25 min
[14] = target: Protein G′ (Sigma Chemical Co. product P-4689) (group G Streptococcal strain) (UniProt P19909); test: resonant light scattering, real time; 500 µg/mL mouse IgG on Protein G′ microparticles; time 11 min
[15] = target: Protein G′ (Sigma Chemical Co. product P-4689) (group G Streptococcal strain) (UniProt P19909); test: resonant light scattering, real time; 500 µg/mL mouse IgG on Protein G′ microparticles; time 20 min
[16] = target: Protein G′ (Sigma Chemical Co. product P-4689) (group G Streptococcal strain) (UniProt P19909); test: resonant light scattering, real time; 50 µg/mL mouse IgG on Protein G′ microparticles; time 11 min
[17] = target: Protein G′ (Sigma Chemical Co. product P-4689) (group G Streptococcal strain) (UniProt P19909); test: resonant light scattering, real time; 10 µg/mL mouse IgG on Protein G′ microparticles; time 50 min
[18] = target: Protein G′ (Sigma Chemical Co. product P-4689) (group G Streptococcal strain) (UniProt P19909); test: resonant light scattering, real time; 50 µg/mL mouse IgG on Protein G′ microparticles; time 0 min (reference)
[19] = target: Protein G′ (Sigma Chemical Co. product P-4689) (group G Streptococcal strain) (UniProt P19909); test: resonant light scattering, real time; 500 µg/mL mouse IgG on Protein G′ microparticles; time 35 min
[20] = target: Protein G′ (Sigma Chemical Co. product P-4689) (group G Streptococcal strain) (UniProt P19909); test: resonant light scattering, real time; 10 µg/mL mouse IgG on Protein G′ microparticles; time 30 min
[21] = target: Protein G′ (Sigma Chemical Co. product P-4689) (group G Streptococcal strain) (UniProt P19909); test: resonant light scattering, real time; 10 µg/mL mouse IgG on Protein G′ microparticles; time 20 min
[22] = target: Protein G′ (Sigma Chemical Co. product P-4689) (group G Streptococcal strain) (UniProt P19909); test: resonant light scattering, real time; 10 µg/mL mouse IgG on Protein G′ microparticles; time 5 min
[23] = target: Protein G′ (Sigma Chemical Co. product P-4689) (group G Streptococcal strain) (UniProt P19909); test: resonant light scattering, real time; 10 µg/mL mouse IgG on Protein G′ microparticles; time 11 min
[24] = target: Protein G′ (Sigma Chemical Co. product P-4689) (group G Streptococcal strain) (UniProt P19909); test: resonant light scattering, real time; 50 µg/mL mouse IgG on Protein G′ microparticles; time 35 min
[25] = target: Protein G′ (Sigma Chemical Co. product P-4689) (group G Streptococcal strain) (UniProt P19909); test: resonant light scattering, real time; 500 µg/mL mouse IgG on Protein G′ microparticles; time 0 min (reference)
[26] = target: Protein G′ (Sigma Chemical Co. product P-4689) (group G Streptococcal strain) (UniProt P19909); test: resonant light scattering, real time; 50 µg/mL mouse IgG on Protein G′ microparticles; time 30 min
[27] = target: Protein G′ (Sigma Chemical Co. product P-4689) (group G Streptococcal strain) (UniProt P19909); test: resonant light scattering, real time; 50 µg/mL mouse IgG on Protein G′ microparticles; time 20 min
[28] = target: Protein G′ (Sigma Chemical Co. product P-4689) (group G Streptococcal strain) (UniProt P19909); test: resonant light scattering, real time; 10 µg/mL mouse IgG on Protein G′ microparticles; time 60 min
[29] = target: Protein G′ (Sigma Chemical Co. product P-4689) (group G Streptococcal strain) (UniProt P19909); test: resonant light scattering, real time; 500 µg/mL mouse IgG on Protein G′ microparticles; time 16 min
[30] = target: mouse IgG (Sigma Chemical Co., product number I5381); test: resonant light scattering; step 1, 2.2 mg/mL E. coli cellular extract proteins on mouse IgG microparticles; against the starting spectra
[31] = target: avidin (from egg white, Sigma Chemical Co., product number A9275) (UniProt P02701); test: resonant light scattering; step C, 50 µg/mL antibody on avidin held on biotinylated microparticles; shift is cumulative against the unbound reference (avidin step alone 0.031 nm); N=18
UniProt P02701, sequence (P02701 25-152 limits assumed): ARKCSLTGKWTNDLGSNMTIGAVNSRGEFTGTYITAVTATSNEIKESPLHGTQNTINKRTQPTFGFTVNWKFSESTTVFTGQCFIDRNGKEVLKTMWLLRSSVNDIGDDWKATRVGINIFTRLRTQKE

[32] = target: mouse IgG (Sigma Chemical Co., product number I5381); test: resonant light scattering; step 3, 50 µg/mL rabbit anti-mouse IgG in step 2 background on mouse IgG microparticles; against the starting spectra

**Q.** “anti-Alexa Fluor 488 rabbit IgG (Molecular Probes, Inc. product number A-11094) (antibody)” was tested. Which resonance wavelength shift [1] did it give?
**A.** -0.004 nm

**Q.** How did the resonance wavelength shift [2] turn out when “Fab specific goat anti-mouse IgG (Sigma Chemical Co. product M 6898) (antibody)” was run?
**A.** 0.111 nm

**Q.** Which wavelength shift [3] does the source give for “mouse IgG (Sigma Chemical Co., product number I5381) (antibody)” here?
**A.** 0.037 nm

**Q.** And the wavelength shift [4]?
**A.** 0.041 nm

**Q.** What about the resonance wavelength shift [5] of the same substance?
**A.** 0.054 nm

**Q.** And the wavelength shift [6]?
**A.** 0.054 nm

**Q.** What about the percent of the saturation binding level [7] of the same substance?
**A.** 70%

**Q.** What about the wavelength shift [8] of the same substance?
**A.** 0.032 nm

**Q.** And the wavelength shift [9]?
**A.** 0 nm

**Q.** What about the wavelength shift [10] of the same substance?
**A.** 0.026 nm

**Q.** What about the wavelength shift [11] of the same substance?
**A.** 0.036 nm

**Q.** What about the wavelength shift [12] of the same substance?
**A.** 0.041 nm

**Q.** What about the wavelength shift [13] of the same substance?
**A.** 0.052 nm

**Q.** And the wavelength shift [14]?
**A.** 0.049 nm

**Q.** What about the wavelength shift [15] of the same substance?
**A.** 0.053 nm

**Q.** What about the wavelength shift [16] of the same substance?
**A.** 0.037 nm

**Q.** What about the wavelength shift [17] of the same substance?
**A.** 0.043 nm

**Q.** And the wavelength shift [18]?
**A.** 0 nm

**Q.** What about the wavelength shift [19] of the same substance?
**A.** 0.054 nm

**Q.** And the wavelength shift [20]?
**A.** 0.036 nm

**Q.** And the wavelength shift [21]?
**A.** 0.03 nm

**Q.** What about the wavelength shift [22] of the same substance?
**A.** 0.01 nm

**Q.** And the wavelength shift [23]?
**A.** 0.022 nm

**Q.** What about the wavelength shift [24] of the same substance?
**A.** 0.06 nm

**Q.** What about the wavelength shift [25] of the same substance?
**A.** 0 nm

**Q.** And the wavelength shift [26]?
**A.** 0.058 nm

**Q.** And the wavelength shift [27]?
**A.** 0.051 nm

**Q.** And the wavelength shift [28]?
**A.** 0.043 nm

**Q.** And the wavelength shift [29]?
**A.** 0.05 nm

**Q.** Which resonance wavelength shift [30] does the source give for E. coli cellular extract proteins here?
**A.** -0.005 nm

**Q.** For “biotinylated anti-bovine immunoglobulin G (IgG) [H+L] [Goat] (Rockland Inc., product number 601-1602) (antibody)”, which resonance wavelength shift [31] is on record?
**A.** 0.069 nm

**Q.** Which resonance wavelength shift [32] does the source give for “rabbit anti-mouse IgG (H+L) (unconjugated, Pierce, product 31188) (antibody)” here?
**A.** 0.056 nm
